Substitutions are numbered along the chain they refer to. Numbers in names are those of the source.
Experiments:
[1] = biological target: RBD of COVID-19 (SARS-CoV-2, wild type (Wuhan-Hu-1) …, UniProt P0DTC2)
[2] = biological target: SARS-CoV-2 RBD (residues 332-527), wild type (SARS-CoV-2, wild type (Wuhan-Hu-1), UniProt P0DTC2)
[3] = biological target: Programmed death-ligand 1 (PD-L1) (Homo sapiens (assumed), UniProt Q9NZQ7); assay: SPR; format and conditions not told; conditions: both partners purified
Programmed death-ligand 1 (PD-L1), sequence (Q9NZQ7 19-290): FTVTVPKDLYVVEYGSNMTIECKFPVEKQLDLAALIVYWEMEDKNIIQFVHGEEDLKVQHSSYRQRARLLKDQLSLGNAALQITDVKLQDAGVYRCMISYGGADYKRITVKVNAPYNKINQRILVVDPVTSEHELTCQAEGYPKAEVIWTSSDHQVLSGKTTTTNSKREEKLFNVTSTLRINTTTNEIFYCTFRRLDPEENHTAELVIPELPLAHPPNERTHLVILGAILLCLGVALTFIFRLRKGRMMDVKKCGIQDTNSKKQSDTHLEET

B1: Human-1 (antibody, V domains shown)
VH: QVQLKESGPGLVKPSQTLSLTCTVSGFSLINYAISWIRQPPGKGLEWIGVIWTGGGTNYNSALKSRLTISKDTSKNQVSLKLSSVTAADTAVYYCARKDYYGRYYGMDYWGQGTTVTVSS
VL: QAVVTQEPSFTVSPGGTVTLTCRSSTGAVTTSNYANWYQQTPGQLFTGLIGGTNNRAPGVPDRFSGSLLGDKAALTITGAQADDEAIYYCALWYNNHWVFGGGTKLTVL
Kd [1]: 0.171 nM

B2: Human-5 (antibody, V domains shown)
VH: QVQLQESGPGLVKPSETLSLTCTVSGFSLINYAISWVRQPPGKGLEWLGVIWTGGGTNYNSALKSRLTISKDNSKNTVYLKMNSLKTEDTARYYCARKDYYGRYYGMDYWGQGTLVTVSS
VL: B1 VL with T11S, Y38V, Q40E, L45A, T47R, D71N, A86S
Kd [1]: 0.139 nM

B3: R1-32-Q61E-WT (antibody, V domains shown)
VH: EVQLVQSGAEVKKPGSSVKVSCKASGGTFSSYFISWVRQAPGQGLEWMGGIIPILGIADYAEKFQGRVTITADKSTSTAYMELSSLRSEDTAVYYCARENGYSGYGAAYNFDLWGRGTLVTVSS
VL: QSVLTQPPSVSGAPGQRVTISCTGSDSNIGAGYDVHWYQQLPGTAPKLLIYGNSNRPSGVPDRFSGSKSGTSASLAITGLQAEDEADYYCQSYDSSLSGSVFGGGTKLTVL
binding result [2]: binds

B4: D1 (antibody, V domains shown)
VH: not shown
VL: DIQMTQSPSTLSASVGDRVTITCKASQDVNTAVAWYQQKPGKAPKLLIYWASTLHTGVPSRFSGSGSGTEFTLTISSLQPDDFATYYCQHYYTDPWTFGQGTKVEIK
Kd [3]: 0.084 nM

B5: D2 (antibody, V domains shown)
VH: not shown
VL: DIQMTQSPSTLSASVGDRVTITCRASQDVSSYLAWYQQKPGKAPKLLIYAASFLQSGVPSRFSGSGSGTEFTLTISSLQPDDFATYYCQQHYSTPPTFGQGTKVEIK
binding result [3]: binds

B6: D4 (antibody, V domains shown)
VH: EVQLLESGGGLVQPGGSLRLSCAASGFTFSNYAMSWVRQAPGKGLEWVSAISSGGGYTYYADSVKGRFTISRDNSKNTLYLQMNSLRAEDTAVYYCAKDHDYAYYAFDYWGQGTLVTVSS
VL: B5 VL with D28S, V29I, S31N, Y32W, A50W, F53T, Q55E, H91Y, Y92A, P96L
binding result [3]: binds

B7: D3 (antibody, V domains shown)
VH: not shown
VL: DIQMTQSPSTLSASVGDRVTITCRASQTIGTWLAWYQQKPGKAPKLLIYTATSLADGVPSRFSGSGSGTEFTLTISSLQPDDFATYYCQQVSSNPRTFGQGTKVEIK
binding result [3]: binds
